Reference: the supplement of paper PMC10724198
± gives the standard deviation of the averaged measurements.

How the values were obtained:
Saccharomyces cerevisiae [1] = experiment: protein stability index of tFT-peptide fusion (C-terminal peptide) (PSI (0-1 scale)); higher = more stable (slower turnover)
Experimental: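 MPS profiling in S. cerevisiae of the tFT-X12 degron library: putative degron peptides plus stable controls, 12 aa, fused to the C-terminus of a sfGFP-mCherry timer. Cells are FACS-sorted into 8 mCherry/sfGFP bins and deep-sequenced. PSI runs from 0 (unstable) to 1 (stable). Backgrounds are wild type, das1Δ and doa10Δ at 30 °C, and wild type, das1Δ, cdc34-1 and cdc53-1 at 37 °C; 2-3 technical replicates each.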

Saccharomyces cerevisiae [2] = experiment: as above; details: genetic background: wild type; temperature: 30 C
[3] = genetic background: cdc34-1, temperature: 37 C
[4] = genetic background: cdc53-1, temperature: 37 C
[5] = genetic background: das1 deletion, temperature: 30 C
[6] = genetic background: das1 deletion, temperature: 37 C
[7] = genetic background: doa10 deletion, temperature: 30 C
[8] = genetic background: wild type, temperature: 30 C
[9] = genetic background: wild type, temperature: 37 C
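Note: PSI is a weighted mean of sequencing reads over stability bins, variants kept only with over 10 reads, mCherry proximal and sfGFP distal, peptide attached via GGGS linker.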

Row | Sequence | protein stability index (Saccharomyces cerevisiae [1]; [3]) | protein stability index (Saccharomyces cerevisiae [1]; [4]) | protein stability index (Saccharomyces cerevisiae [1]; [5]) | protein stability index (Saccharomyces cerevisiae [1]; [6]) | protein stability index (Saccharomyces cerevisiae [1]; [7]) | protein stability index (Saccharomyces cerevisiae [1]; [8]) | protein stability index (Saccharomyces cerevisiae [1]; [9]) | protein stability index (Saccharomyces cerevisiae [2])
1 | RFRFRRTCLYAT | 0.5745 ± 0.0034 | 0.588 ± 0.077 | 0.501 ± 0.028 | 0.655 ± 0.013 | 0.0931 ± 0.039 | 0.14 ± 0.0057 | 0.217 ± 0.033 | 0.197 ± 0.0089
2 | RLVRILSTILLN | 0.487 ± 0.079 | 0.638 ± 0.038 | 0.576 ± 0.028 | 0.703 ± 0.052 | 0.0769 ± 0.029 | 0.1 ± 0.014 | 0.0569 ± 0.034 | 0.177 ± 0.049
3 | VPPLPPPGPPTF | 0.705 ± 0.0084 | 0.7583 ± 0.0011 | 0.667 ± 0.012 | 0.733 ± 0.014 | 0.683 ± 0.029 | 0.6765 ± 0.0056 | 0.708 ± 0.011 | 0.699 ± 0.015
4 | VCAFCLFFVPLP | 0.5888 ± 0.00072 | 0.668 ± 0.023 | 0.425 ± 0.038 | 0.6497 ± 0.0021 | 0.3831 ± 0.0035 | 0.413 ± 0.022 | 0.593 ± 0.012 | 0.47 ± 0.013
5 | LISRGNRALFCI | 0.678 ± 0.044 | 0.739 ± 0.013 | 0.589 ± 0.017 | 0.755 ± 0.029 | 0.204 ± 0.015 | 0.224 ± 0.03 | 0.482 ± 0.016 | 0.314 ± 0.02
6 | FRHKLSLGLVIV | 0.54 ± 0.037 | 0.555 ± 0.073 | 0.396 ± 0.029 | 0.56 ± 0.0072 | 0.347 ± 0.012 | 0.377 ± 0.028 | 0.534 ± 0.014 | 0.507 ± 0.011
7 | GAFAGDVWRCVV | 0.627 ± 0.02 | 0.755 ± 0.02 | 0.653 ± 0.025 | 0.778 ± 0.014 | 0.154 ± 0.0073 | 0.165 ± 0.026 | 0.2682 ± 0.0021 | 0.297 ± 0.024
8 | DVCGVRYVLFVL | 0.57 ± 0.014 | 0.647 ± 0.018 | 0.49 ± 0.025 | 0.655 ± 0.024 | 0.416 ± 0.0086 | 0.428 ± 0.026 | 0.597 ± 0.026 | 0.502 ± 0.013
9 | AKVFGLILVLLT | 0.211 ± 0.026 | 0.349 ± 0.027 | 0.227 ± 0.023 | 0.407 ± 0.025 | 0.201 ± 0.017 | 0.205 ± 0.024 | 0.3711 ± 0.0013 | 0.334 ± 0.022
10 | GAVVYGICFCTN | 0.624 ± 0.011 | 0.617 ± 0.0081 | 0.388 ± 0.031 | 0.637 ± 0.027 | 0.35 ± 0.0049 | 0.363 ± 0.035 | 0.621 ± 0.0069 | 0.442 ± 0.061
11 | HMVSWTVVRSLM | 0.652 ± 0.065 | 0.7014 ± 0.004 | 0.603 ± 0.019 | 0.76 ± 0.026 | 0.138 ± 0.029 | 0.144 ± 0.0044 | 0.2582 ± 0.00046 | 0.316 ± 0.011
12 | RWCLELLWITSC | 0.325 ± 0.013 | 0.451 ± 0.013 | 0.355 ± 0.03 | 0.5006 ± 0.005 | 0.0892 ± 0.0011 | 0.0824 ± 0.015 | 0.0678 ± 0.011 | 0.162 ± 0.015
13 | FFSRSLGAGVAA | 0.71 ± 0.037 | 0.747 ± 0.044 | 0.602 ± 0.028 | 0.715 ± 0.041 | 0.5962 ± 0.0036 | 0.604 ± 0.013 | 0.724 ± 0.033 | 0.644 ± 0.21
14 | SSLLLLCCLLVG | 0.365 ± 0.029 | 0.427 ± 0.015 | 0.277 ± 0.032 | 0.437 ± 0.01 | 0.248 ± 0.013 | 0.263 ± 0.03 | 0.403 ± 0.014 | 0.332 ± 0.01
15 | LVVGCFLTFCFG | 0.241 ± 0.013 | 0.366 ± 0.012 | 0.26 ± 0.028 | 0.441 ± 0.0089 | 0.212 ± 0.0024 | 0.236 ± 0.038 | 0.402 ± 0.0085 | 0.315 ± 0.028
16 | IISPLRLLPLFF | 0.634 ± 0.018 | 0.73 ± 0.013 | 0.61 ± 0.039 | 0.724 ± 0.0088 | 0.271 ± 0.011 | 0.298 ± 0.03 | 0.515 ± 0.0086 | 0.388 ± 0.017
17 | PPRPLHPPCRPP | 0.64 ± 0.021 | 0.6975 ± 0.00072 | 0.66 ± 0.033 | 0.6943 ± 0.0015 | 0.659 ± 0.024 | 0.657 ± 0.013 | 0.688 ± 0.011 | 0.702 ± 0.013
18 | FFAFLRFFIFYW | 0.319 ± 0.058 | 0.266 ± 0.087 | 0.349 ± 0.032 | 0.435 ± 0.0075 | 0.419 ± 0.0083 | 0.328 ± 0.0074 | 0.451 ± 0.026 | 0.448 ± 0.063
19 | RISYKTKINELI | 0.653 ± 0.038 | 0.735 ± 0.034 | 0.607 ± 0.034 | 0.737 ± 0.01 | 0.262 ± 0.0063 | 0.287 ± 0.052 | 0.5426 ± 0.003 | 0.434 ± 0.043
20 | CHSICLVILEFI | 0.183 ± 0.0091 | 0.338 ± 0.049 | 0.25 ± 0.05 | 0.436 ± 0.011 | 0.183 ± 0.03 | 0.198 ± 0.028 | 0.384 ± 0.011 | 0.274 ± 0.034

Row | Sequence | protein stability index (Saccharomyces cerevisiae [1]; [3]) | protein stability index (Saccharomyces cerevisiae [1]; [4]) | protein stability index (Saccharomyces cerevisiae [1]; [5]) | protein stability index (Saccharomyces cerevisiae [1]; [6]) | protein stability index (Saccharomyces cerevisiae [1]; [7]) | protein stability index (Saccharomyces cerevisiae [1]; [8]) | protein stability index (Saccharomyces cerevisiae [1]; [9]) | protein stability index (Saccharomyces cerevisiae [2])
21 | WFIFATFLILVT | 0.0797 ± 0.0056 | 0.112 ± 0.0058 | 0.136 ± 0.032 | 0.2121 ± 0.001 | 0.154 ± 0.014 | 0.121 ± 0.0082 | 0.182 ± 0.012 | 0.193 ± 0.051
22 | FFVEFFLLCFCS | 0.497 ± 0.023 | 0.498 ± 0.024 | 0.463 ± 0.057 | 0.503 ± 0.036 | 0.476 ± 0.0075 | 0.472 ± 0.019 | 0.515 ± 0.033 | 0.476 ± 0.0053
23 | GYAFPPPHRVRT | 0.654 ± 0.073 | 0.7419 ± 0.0073 | 0.669 ± 0.023 | 0.7288 ± 0.0051 | 0.6865 ± 0.0043 | 0.652 ± 0.029 | 0.702 ± 0.016 | 0.741 ± 0.025
24 | GGRHYGILDLSL | 0.638 ± 0.063 | 0.708 ± 0.013 | 0.677 ± 0.019 | 0.719 ± 0.024 | 0.6927 ± 0.0056 | 0.677 ± 0.025 | 0.6992 ± 0.00076 | 0.7174 ± 0.0062
25 | ASVSVWCVSVVV | 0.124 ± 0.017 | 0.166 ± 0.0023 | 0.103 ± 0.02 | 0.1641 ± 0.00088 | 0.087 ± 0.024 | 0.109 ± 0.017 | 0.148 ± 0.011 | 0.15 ± 0.026
26 | ILFCVRIGLFWT | 0.0461 ± 0.0067 | 0.135 ± 0.0014 | 0.137 ± 0.03 | 0.24 ± 0.0035 | 0.146 ± 0.019 | 0.128 ± 0.03 | 0.179 ± 0.014 | 0.219 ± 0.051
27 | GYTVYARRLIMC | 0.215 ± 0.0094 | 0.265 ± 0.008 | 0.236 ± 0.024 | 0.382 ± 0.021 | 0.0746 ± 0.0026 | 0.0799 ± 0.0087 | 0.0893 ± 0.024 | 0.146 ± 0.015
28 | RPRRARLPNFLA | 0.37 ± 0.0066 | 0.64023 ± 0.0001 | 0.653 ± 0.022 | 0.705 ± 0.018 | 0.0688 ± 0.021 | 0.073 ± 0.0067 | 0.0894 ± 0.0014 | 0.0979 ± 0.012
29 | RVSECVSVVGWM | 0.678 ± 0.082 | 0.723 ± 0.025 | 0.624 ± 0.019 | 0.737 ± 0.011 | 0.619 ± 0.024 | 0.633 ± 0.0064 | 0.7147 ± 0.0044 | 0.562 ± 0.14
30 | PCNVLWYSLFLF | 0.487 ± 0.015 | 0.597 ± 0.025 | 0.452 ± 0.027 | 0.597 ± 0.018 | 0.175 ± 0.018 | 0.19 ± 0.017 | 0.34 ± 0.0062 | 0.271 ± 0.0091
31 | CTYSLSVLFVFF | 0.396 ± 0.014 | 0.51 ± 0.067 | 0.3 ± 0.03 | 0.51 ± 0.056 | 0.252 ± 0.012 | 0.307 ± 0.035 | 0.4462 ± 0.0024 | 0.382 ± 0.024
32 | SLIDPLGNLFNS | 0.71 ± 0.015 | 0.756 ± 0.038 | 0.682 ± 0.039 | 0.756 ± 0.028 | 0.672 ± 0.024 | 0.678 ± 0.014 | 0.72 ± 0.018 | 0.752 ± 0.041
33 | YWRNYLVLVCKF | 0.836 ± 0.04 | 0.794 ± 0.075 | 0.592 ± 0.023 | 0.778 ± 0.023 | 0.487 ± 0.07 | 0.481 ± 0.046 | 0.613 ± 0.024 | 0.359 ± 0.065
34 | SFLACFVLAFFC | 0.4055 ± 0.00023 | 0.478 ± 0.018 | 0.346 ± 0.032 | 0.475 ± 0.011 | 0.24 ± 0.0037 | 0.281 ± 0.017 | 0.411 ± 0.022 | 0.372 ± 0.014
35 | GLVSCWIDPSMA | 0.697 ± 0.0081 | 0.77 ± 0.032 | 0.635 ± 0.0088 | 0.73 ± 0.025 | 0.597 ± 0.021 | 0.628 ± 0.03 | 0.708 ± 0.023 | 0.714 ± 0.04
36 | FWMLCFLCRLTV | 0.3236 ± 0.0019 | 0.338 ± 0.0098 | 0.306 ± 0.043 | 0.459 ± 0.011 | 0.2213 ± 0.0021 | 0.221 ± 0.026 | 0.361 ± 0.0071 | 0.32 ± 0.03
37 | IREYSIRIKRLQ | 0.623 ± 0.062 | 0.722 ± 0.052 | 0.64 ± 0.041 | 0.719 ± 0.022 | 0.138 ± 0.016 | 0.146 ± 0.04 | 0.318 ± 0.058 | 0.33 ± 0.036
38 | VTGYLSTLTMLC | 0.6 ± 0.015 | 0.654 ± 0.0097 | 0.551 ± 0.02 | 0.671 ± 0.023 | 0.231 ± 0.0097 | 0.247 ± 0.03 | 0.5014 ± 0.0011 | 0.3832 ± 0.0015
39 | VYVYTIRVRWSE | 0.135 ± 0.024 | 0.274 ± 0.039 | 0.197 ± 0.013 | 0.289 ± 0.023 | 0.164 ± 0.021 | 0.184 ± 0.027 | 0.269 ± 0.03 | 0.277 ± 0.015
